Test results taken from patent US20250152742A1, “COMPOSITIONS AND METHODS FOR NEUROLOGICAL DISEASES” (Trames Bio, Inc., priority 2022, published 2025).

System: engineered chimeric receptor SEQ ID NO: 33 and its mutants (human α7-nAChR ligand binding domain / human GlyRα1 ion pore domain) in Lenti-X 293T cells
Test: YFP fluorescence quenching anion reporter plate reader assay (percent quench, EC50)
Type: cell-based
Conditions: for YFP fluorescence quenching using CNL001 (percent quench): receptor named in row; for YFP fluorescence quenching using Varenicline, 3 nM var: ligand Varenicline 3 nM; for YFP fluorescence quenching using Varenicline, 30 nM var: ligand Varenicline 30 nM; for YFP fluorescence quenching using Varenicline, 300 nM var: ligand Varenicline 300 nM; for YFP fluorescence quenching using Varenicline, 500 nM var: ligand Varenicline 500 nM; for YFP fluorescence quenching using Varenicline, 1 uM var: ligand Varenicline 1 uM
Summary of the method: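 Lenti-X 293T cells co-expressing an anion-quenchable YFP were transiently transfected with receptor DNA, then ligand was added in NaI-substituted buffer (pH 7.2) after 30 min at 37 °C. Fluorescence was read about 2 min; percent quench = mean of last 10 s over 15 s pre-ligand baseline.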

B1: CODA945: engineered receptor: Q139E in SEQ ID NO: 33 (protein)
chain: MRCSPGGVWLALAASLLHVSLQGEFQRKLYKELVKNYNPLERPVANDSQPLTVYFSLSLLQIMDVDEKNQVLTTNIWLQMSWTDHYLQWNVSEYPGVKTVRFPDGQIWKPDILLYNSADERFDATFHTNVLVNSSGHCEYLPPGIFKSSCPMDLKNFPMDVQTCKLKFGSWSYGGWSLDLQMQEADISGYIPNGEWDLVGIPGKRSERFYECCKEPYPDVTFTVTMRRRMGYYLIQMYIPSLLIVILSWISFWINMDAAPARVGLGITTVLTMTTQSSGSRASLPKVSYVKAIDIWMAVCLLFVFSALLEYAAVNFVSRQHKELLRFRRKRRHHKSPMLNLFQEDEAGEGRFNFSAYGMGPACLQAKDGISVKGANNSNTTNPPPAPSKSPEEMRKLFIQRAKKIDKISRIGFPMAFLIFNMFYWIIYKIVRREDVHNQ
modifications: synthetic sequence of chimeric LGIC
YFP fluorescence quenching using CNL001 (percent quench) (1 nM CNL001, first column so headed): 6.65%
YFP fluorescence quenching using CNL001 (percent quench) (1 nM CNL001, second column so headed): 13.512%
YFP fluorescence quenching using TC-5619/Bradanicline (percent quench) (3 nM brd (TC-5619/Bradanicline)): 14.15%
YFP fluorescence quenching using CNL001 (percent quench) (10 nM CNL001, first column so headed): 78.678%
YFP fluorescence quenching using CNL001 (percent quench) (10 nM CNL001, second column so headed): 82.723%
YFP fluorescence quenching using TC-6683 (percent quench) (30 nM TC-6683): −26.47%
YFP fluorescence quenching using TC-5619/Bradanicline (percent quench) (30 nM brd (TC-5619/Bradanicline)): 78.18%
YFP fluorescence quenching using CNL001 (percent quench) (50 nM CNL001, first column so headed): 84.91%
YFP fluorescence quenching using CNL001 (percent quench) (50 nM CNL001, second column so headed): 84.849%
YFP fluorescence quenching using ABT-126 (percent quench) (50 nM abt (ABT-126)): −8.27%
YFP fluorescence quenching using CNL001 (percent quench) (100 nM CNL001, first column so headed): 85.046%
YFP fluorescence quenching using CNL001 (percent quench) (100 nM CNL001, second column so headed): 84.642%
YFP fluorescence quenching (percent quench) (100 nM CNL002): 60.5%
YFP fluorescence quenching using ABT-126 (percent quench) (100 nM abt (ABT-126)): 4.76%
YFP fluorescence quenching using AZD-0328 (percent quench) (100 nM azd0328): −5.79%
YFP fluorescence quenching using TC-6683 (percent quench) (300 nM TC-6683): −18.62%
YFP fluorescence quenching using ABT-126 (percent quench) (300 nM abt (ABT-126)): 30.88%
YFP fluorescence quenching using AZD-0328 (percent quench) (300 nM azd0328): 58.47%
YFP fluorescence quenching using TC-5619/Bradanicline (percent quench) (300 nM brd (TC-5619/Bradanicline)): 76.8%
YFP fluorescence quenching using CNL001 (percent quench) (1 uM CNL001, first column so headed): 85.493%
YFP fluorescence quenching using CNL001 (percent quench) (1 uM CNL001, second column so headed): 86.071%
YFP fluorescence quenching (percent quench) (1 uM CNL002): 75.41%
YFP fluorescence quenching using ABT-126 (percent quench) (1 uM abt (ABT-126)): 60.66%
YFP fluorescence quenching using TC-6683 (percent quench) (3 uM TC-6683): −13.39%
YFP fluorescence quenching (percent quench) (10 uM ach (acetylcholine)): −1.25%
YFP fluorescence quenching (percent quench) (30 uM CNL002): 77.46%
YFP fluorescence quenching using TC-6683 (percent quench) (30 uM TC-6683): −16.6%
YFP fluorescence quenching using AZD-0328 (percent quench) (30 uM azd0328): 66.57%
YFP fluorescence quenching using TC-6683 (percent quench) (100 uM TC-6683): −12.89%
YFP fluorescence quenching (percent quench) (100 uM ach (acetylcholine)): 71.21%
YFP fluorescence quenching (percent quench) (1 mM ach (acetylcholine)): 71.79%
YFP fluorescence quenching (percent quench) (3 mM ach (acetylcholine)): 76.04%
YFP fluorescence quenching using Facinicline, 30 nM fac (ligand Facinicline 30 nM): −7.16
YFP fluorescence quenching using Facinicline, 300 nM fac (ligand Facinicline 300 nM): 71.17
YFP fluorescence quenching using Facinicline, 30 uM fac (ligand Facinicline 30 uM): 72.14
YFP fluorescence quenching using TC-6987, 1 uM tc6987 (ligand TC-6987 1 uM): −0.97
YFP fluorescence quenching using TC-6987, 10 uM tc6987 (ligand TC-6987 10 uM): 21.53
YFP fluorescence quenching using TC-6987, 500 uM tc6987 (ligand TC-6987 500 uM): 7.39
YFP fluorescence quenching using Varenicline, 3 nM var (first column): 8.207
YFP fluorescence quenching using Varenicline, 3 nM var (second column): 7.835
YFP fluorescence quenching using Varenicline, 30 nM var (first column): 9.509
YFP fluorescence quenching using Varenicline, 30 nM var (second column): 10.204
YFP fluorescence quenching using Varenicline, 300 nM var (first column): 9.818
YFP fluorescence quenching using Varenicline, 300 nM var (second column): 12.539
YFP fluorescence quenching using Varenicline, 500 nM var (first column): 16.762
YFP fluorescence quenching using Varenicline, 500 nM var (second column): 15.21
YFP fluorescence quenching using Varenicline, 1 uM var (first column): 48.292
YFP fluorescence quenching using Varenicline, 1 uM var (second column): 54.096
